Holding throughout (experiment): cryo-EM structure
Assay [1] addresses H. catenoides kalium channelrhodopsin (HcKCR1), wildtype (Hyphochytrium catenoides).
Assay [2] has as its target sodium selective channelrhodopsin HcCCR from H. catenoides (Hyphochytrium catenoides).
The target of assay [3] is higher potassium selective channelrhodopsin (B1ChR2) from Bilabrum sp (Bilabrum sp).

The stoichiometry N is a count of units in the complex or per binding partner. Turning to “H. catenoides kalium channelrhodopsin (HcKCR1), wildtype (natural protein)”, the stoichiometry N in assay [1] came to 3. “sodium selective channelrhodopsin HcCCR from H. catenoides (natural protein)” displayed a stoichiometry N in assay [2] of 3.

Regarding “higher potassium selective channelrhodopsin (B1ChR2) from Bilabrum sp (natural protein)”, the stoichiometry N in assay [3] came out at 3.

For the origin of these results see paper doi:10.1101/2023.07.22.550149.
